According to US20030148956A1 (PROCTER AND GAMBLE, published 2003):
Ends that are not written are not given here.

Assays:
CRF2R = target: T1, CRF2R; assay: cell-based or functional assay
T1 sequence (Q13324 whole entry, species assumed, looked up): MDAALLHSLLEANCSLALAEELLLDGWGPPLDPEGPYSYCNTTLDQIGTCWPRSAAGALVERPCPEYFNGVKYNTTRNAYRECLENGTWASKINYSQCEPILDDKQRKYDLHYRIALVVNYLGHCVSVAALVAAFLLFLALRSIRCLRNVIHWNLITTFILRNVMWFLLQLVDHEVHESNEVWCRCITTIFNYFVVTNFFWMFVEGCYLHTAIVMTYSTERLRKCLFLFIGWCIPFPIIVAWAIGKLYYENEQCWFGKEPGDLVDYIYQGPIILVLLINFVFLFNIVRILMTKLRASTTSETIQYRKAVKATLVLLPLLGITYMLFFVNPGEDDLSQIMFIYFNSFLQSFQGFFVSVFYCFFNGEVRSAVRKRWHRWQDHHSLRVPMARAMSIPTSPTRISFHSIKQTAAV

CRF1R = assay: cell-based or functional assay

| Binder | CRF2R EC50 (CRF2R) [nM] | CRF2R Emax (CRF2R) [%] | CRF1R EC50 (CRF1R) [nM] | CRF1R Emax (CRF1R) [%] |
| --- | --- | --- | --- | --- |
| IVLSLDVPIGLLQILLEQTRARAAREQATTNARILARV-NH2 [SEQ ID NO 128] | 2.85 | 98 | > 100 | 8 |
| IVLSLDVPIGLLQILLEQRARAAREQATTNARILARV-NH2 [SEQ ID NO 137] | 36.9 | 100 | > 100 | 4 |
| IVLSLDVPIGLLQILLEQAAAREQATTNARILARV-NH2 [SEQ ID NO 139] | 42.6 | 60 | > 100 | 4 |
| IVLSLDVPIGLLQILLEQTKARAAREQATTNARILARV-NH2 [SEQ ID NO 129] | 3.83 | – | > 100 | – |
| IVLSLDVPIGLLQILLEQEKEKKRKETNARILARV-NH2 [SEQ ID NO 132] | 7.53 | 88 | > 100 | 8 |
| IVLSLDVPIGLLQILLEQAAREQATTNARILARV-NH2 [SEQ ID NO 138] | 59 | 46 | > 100 | 5 |
| IVLSLDVPIGLLQILLEQAARAAREQATTNARILARV-NH2 [SEQ ID NO 135] | > 100 | 76 | > 100 | 6 |
| IVLSLDVPIGLLQILLEQTRADAAREQATTNARILARV-NH2 [SEQ ID NO 126] | 13 | 91 | > 100 | 7 |
| IVLSLDVPIGLLQILLEQRRAAREQATTNARILARV-NH2 [SEQ ID NO 133] | 12.2 | 88 | > 100 | 4 |
| IVLSLDVPIGLLQILLEQARAAAREQATTNARILARV-NH2 [SEQ ID NO 141] | > 100 | 29 | > 100 | 7 |
| IVLSLDVPIGLLQILLEQAAAAREQATTNARILARV-NH2 [SEQ ID NO 134] | > 100 | 19 | > 100 | 7 |
| IVLSLDVPIGLLQILLEQAKADAAREQATTNARILARV-NH2 [SEQ ID NO 131] | 5.25 | 91 | > 100 | 8 |
| IVLSLDVPIGLLQILLEQAKARAAREQATTNARILARV-NH2 [SEQ ID NO 127] | 7.79 | – | > 100 | – |
| IVLSLDVPIGLLQILLEQAKQEAAREQATTNARILARV-NH2 [SEQ ID NO 124] | 3.49 | 94 | > 100 | 6 |
| IVLSLDVPIGLLQILLEQARADAAREQATTNARILARV-NH2 [SEQ ID NO 130] | 8.57 | 92 | > 100 | 9 |
| IVLSLDVPIGLLQILLEQRAAREQATTNARILARV-NH2 [SEQ ID NO 136] | 23.4 | 68 | > 100 | 8 |
| IVLSLDVPIGLLQILLEQEKQEAAREQATTNARILARV-NH2 [SEQ ID NO 125] | 4.47 | 99 | > 100 | 9 |
| ZGPPISIDLSLELLRKMIEIEKQEKEKQQATTNARILARV (C-terminal amide) [SEQ ID NO 142] | 9.08 | 77 | 43.5 | 85.3 |
| ZGPPISIDLPFYLLRKMIEIEKQEKEKQQATTNARILARV (C-terminal amide) [SEQ ID NO 147] | 6.75 | 94 | 102 | 96 |
| ZGPPISIDLPLHLLRKMIEIEKQEKEKQQATTNARILARV (C-terminal amide) [SEQ ID NO 145] | 7.8 | 69 | 196 | 91.3 |
| ZGPPISIDLPIYLLRKMIEIEKQEKEKQQATTNARILARV (C-terminal amide) [SEQ ID NO 149] | 26.2 | 95.5 | 1000 | 40.7 |
| ZGPPISIDLPIQLLRKMIEIEKQEKEKQQATTNARILARV (C-terminal amide) [SEQ ID NO 150] | 34.6 | 70.5 | 1000 | 5.7 |
| ZGPPISIDLPFHLLRKMIEIEKQEKEKQQATTNARILARV (C-terminal amide) [SEQ ID NO 146] | 8.2 | 84.5 | 103 | 100 |
| ZGPPISIDLPLQLLRKMIEIEKQEKEKQQATTNARILARV (C-terminal amide) [SEQ ID NO 144] | 9.16 | 85.5 | 567 | 100 |
| ZGPPISIDLPFQLLRKMIEIEKQEKEKQQATTNARILARV (C-terminal amide) [SEQ ID NO 148] | 9.45 | 51.5 | 295 | 100 |
| ZGPPISIDLPLELLRKMIEIEKQEKEKQQATTNARILARV (C-terminal amide) [SEQ ID NO 143] | 11.1 | 85.5 | 232 | 100 |
| ZGPPISIDLPFQLLRKMIEIEKQEKEKQQATTNRLLLDTI (C-terminal amide) [SEQ ID NO 13] | 3.88 | 79 | 97.7 | 69 |
| ZGPPISIDLPFQLLRKMIEIEKQEKEKQQAAANRLLLDTV (C-terminal amide) [SEQ ID NO 15] | 6.56 | 97 | 85.3 | 86 |
| ZGPPISIDLPFQLLRKMIEIEKQEKEKQQATNNRLLLDTI (C-terminal amide) [SEQ ID NO 14] | 6.33 | 90 | 109 | 92 |
